Bridge positions count the residues as written; N and C are the ends. Ends that are not written are not given here. I, II: the chains in the order shown. * marks the point of attachment. Formula (I) = human serum albumin binder 2-[2-[2-[2-[2-[2-[2-(carbonylmethoxy)ethoxy]ethylamino]-2-oxo-ethoxy]ethoxy]ethylamino]-2-oxo-ethoxy]-5-(18-carboxyoctadecyl)benzoic acid, amide to Lys epsilon-N, O=C(O)CCCCCCCCCCCCCCCCCCc1ccc(OCC(=O)NCCOCCOCC(=O)NCCOCCOCC(=O)*)c(C(=O)O)c1

Experiment [1] has as its target human insulin receptor isoform B (human) (UniProt P06213). The experiment is described as follows: cell-based or functional assay.
Chain of UniProt P06213 (P06213 28-1382): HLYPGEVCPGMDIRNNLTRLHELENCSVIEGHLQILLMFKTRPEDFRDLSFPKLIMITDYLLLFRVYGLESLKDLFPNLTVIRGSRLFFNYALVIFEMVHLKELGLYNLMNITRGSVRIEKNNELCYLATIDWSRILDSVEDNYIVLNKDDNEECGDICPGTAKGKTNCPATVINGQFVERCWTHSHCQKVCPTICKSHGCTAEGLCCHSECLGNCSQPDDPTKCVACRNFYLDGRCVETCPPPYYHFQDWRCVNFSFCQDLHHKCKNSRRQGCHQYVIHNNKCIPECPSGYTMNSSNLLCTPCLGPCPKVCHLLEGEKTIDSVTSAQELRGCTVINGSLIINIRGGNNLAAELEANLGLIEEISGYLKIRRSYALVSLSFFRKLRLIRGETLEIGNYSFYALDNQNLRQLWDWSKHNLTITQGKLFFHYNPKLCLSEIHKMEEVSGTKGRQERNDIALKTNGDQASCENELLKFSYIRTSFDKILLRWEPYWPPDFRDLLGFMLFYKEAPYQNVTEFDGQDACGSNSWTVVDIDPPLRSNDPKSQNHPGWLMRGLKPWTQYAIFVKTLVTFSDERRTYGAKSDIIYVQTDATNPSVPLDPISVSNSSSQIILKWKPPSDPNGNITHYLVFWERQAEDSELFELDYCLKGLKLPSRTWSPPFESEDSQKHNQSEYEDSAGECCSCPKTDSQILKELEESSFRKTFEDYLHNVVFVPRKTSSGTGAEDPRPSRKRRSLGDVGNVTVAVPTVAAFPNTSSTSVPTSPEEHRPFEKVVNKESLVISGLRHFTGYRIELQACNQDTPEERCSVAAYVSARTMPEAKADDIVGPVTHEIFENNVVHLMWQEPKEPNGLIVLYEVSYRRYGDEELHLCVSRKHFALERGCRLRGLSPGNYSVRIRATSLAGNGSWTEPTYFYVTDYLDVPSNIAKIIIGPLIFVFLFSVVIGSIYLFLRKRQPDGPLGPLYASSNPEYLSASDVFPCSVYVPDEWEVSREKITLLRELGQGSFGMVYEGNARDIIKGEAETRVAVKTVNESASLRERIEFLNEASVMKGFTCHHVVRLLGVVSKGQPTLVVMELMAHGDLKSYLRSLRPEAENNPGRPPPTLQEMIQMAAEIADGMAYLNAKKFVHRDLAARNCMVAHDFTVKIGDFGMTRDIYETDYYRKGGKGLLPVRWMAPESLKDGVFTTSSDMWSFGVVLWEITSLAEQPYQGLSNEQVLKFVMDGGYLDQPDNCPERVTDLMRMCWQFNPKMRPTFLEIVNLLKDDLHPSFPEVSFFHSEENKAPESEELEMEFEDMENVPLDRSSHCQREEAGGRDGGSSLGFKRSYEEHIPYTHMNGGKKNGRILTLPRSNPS
The target is the same in experiment [2]. The experiment in a line: SPA competition with [125I]-labelled human insulin, membranes of CHO cells overexpressing IR.

B1: Conjugate 1: Arg(A5)Glu(A14)Arg(A18)Gly(A21)Glu(B16)His(B25)Arg(B27)Arg(B31)-insulin with the human serum albumin binder of Formula (I) on Lys(B29) (ligand)
chain 1: GIVERCCTSICSLEQLERYCG
chain 2: FVNQHLCGSHLVEALELVCGERGFHYRPK(Formula (I))TR
modifications: disulfide I:6-I:11, I:20-II:19, I:7-II:7
B1 gave an Autophosphorylation activity (relative to human insulin) (relative to human insulin) in experiment [1] of 0.07. Moreover, in experiment [2], the Insulin receptor B binding affinity relative to human insulin was below 2% and the Insulin-receptor binding affinity relative to human insulin (relative to human insulin) amounted to 0.01.
